Among the data in PMC5883314, “Soluble expression of an amebic cysteine protease in the cytoplasm of Escherichia coli SHuffle Express cells and purification of active enzyme” (BMC Biotechnology, 2018) are IC50 and Km values, retold here.

For data set [1], the target named is T1, EhCP1 (Cysteine Protease 1 of Entamoeba histolytica) (Entamoeba histolytica, UniProt Q01957).
T1 construct: gene CP1; pro-mature polypeptide (Ile14 to Leu315), N-terminal hexahistidine tag
Put plainly: inhibition of purified recombinant enzyme, hydrolysis of Z-Arg-Arg-pNA and Z-Arg-Arg-AMC. Type of data set: biochemical.

Data set [2] deals with Cc1cc(=O)oc2cc(NC(=O)[C@H](CCCNC(=N)N)NC(=O)[C@H](CCCNC(=N)N)NC(=O)OCc3ccccc3)ccc12. Put plainly: purified protein.
In data set [3] the test system is N=C(N)NCCC[C@H](NC(=O)OCc1ccccc1)C(=O)N[C@@H](CCCNC(=N)N)C(=O)Nc1ccc([N+](=O)[O-])cc1. Description: purified protein.

T1 sequence (Q01957 14-315): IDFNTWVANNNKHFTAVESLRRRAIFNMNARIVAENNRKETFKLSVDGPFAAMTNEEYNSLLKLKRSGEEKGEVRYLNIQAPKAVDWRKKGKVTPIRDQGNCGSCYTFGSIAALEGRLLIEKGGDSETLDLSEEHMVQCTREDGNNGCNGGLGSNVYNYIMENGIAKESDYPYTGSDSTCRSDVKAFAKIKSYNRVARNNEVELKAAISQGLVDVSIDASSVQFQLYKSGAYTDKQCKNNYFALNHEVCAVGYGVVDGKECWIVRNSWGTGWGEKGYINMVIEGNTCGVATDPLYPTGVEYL

For `CC(C)C[C@H](NC(=O)[C@H]1O[C@@H]1C(=O)O)C(=O)NCCCCN=C(N)N` [E-64, L-trans-3-carboxyoxiran-2-carbonyl-L-leucylagmatine], the IC50 in data set [1] stood at 1 µM. As to “EhCP1 (Cysteine Protease 1 of Entamoeba histolytica) (Entamoeba histolytica HM-1:IMSS)”, the Michaelis constant (Km) was found to be 6.7 µM in data set [2] and 57.1 µM in data set [3].
